# Results reported in US20180155451A1 (published 2018).
# T1: FcγRIIb extracellular domain with C-terminal His tag (human, UniProt P31994 43-217)
# T1 construct: extracellular domain; Expressed in FreeStyle293 cells and used as the analyte in Biacore; also called FcgRIIb; 2b; not shown: His tag attached to the C terminus
# T1 sequence (looked up): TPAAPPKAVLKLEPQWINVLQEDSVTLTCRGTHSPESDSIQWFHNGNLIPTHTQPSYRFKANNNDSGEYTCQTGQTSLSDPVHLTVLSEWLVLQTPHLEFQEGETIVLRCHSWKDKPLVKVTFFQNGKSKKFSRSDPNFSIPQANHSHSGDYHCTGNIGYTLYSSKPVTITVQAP
# T2: FcγRIIa R (human FcγRIIa, allotype R, Arg at position 131), extracellular domain with C-terminal His tag (human, UniProt P12318 34-217)
# T2 construct: extracellular domain; expressed in FreeStyle293 cells; analyte in Biacore; also called 2aR; FcgRIIa R
# T2 sequence (looked up): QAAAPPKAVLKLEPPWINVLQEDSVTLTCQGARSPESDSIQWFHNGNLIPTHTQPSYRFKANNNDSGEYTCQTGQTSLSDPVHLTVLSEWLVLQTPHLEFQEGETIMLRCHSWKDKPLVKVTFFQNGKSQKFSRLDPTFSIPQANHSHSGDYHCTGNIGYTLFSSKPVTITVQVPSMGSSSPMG
# B1: GpH7-A5/GpH7-B3 variant S267_10E/GpL16-k0 (He Ab) (antibody, human IgG1, kappa)
# heavy 1: not shown
# heavy 2: not shown
# light: DIVMTQSPLSLPVTPGEPASISCQASESLVHSNRNTYLHWYLQKPGQSPQLLIYKVSNRFSGVPDRFSGSGSGTDFTLKISRVEAEDVGVYYCSQNTHVPPTFGQGTKVEIERTVAAPSVFIFPPSDEQLKSGTASVVCLLNNFYPREAKVQWKVDNALQSGNSQESVTEQDSKDSTYSLSSTLTLSKADYEKHKVYACEVTHQGLSSPVTKSFNRGEC
# notes: Anti-glypican-3 heterodimerized IgG1 antibody; the mutation stands in only one H chain (the GpH7-B3 chain); also called S267E in one H chain
# B2: GpH7-A5/GpH7-B3 variant P271_08L/GpL16-k0 (He Ab) (antibody, human IgG1, kappa)
# heavy 1: not shown
# heavy 2: not shown
# light: B1 light
# notes: Anti-glypican-3 heterodimerized IgG1 antibody; the mutation stands in only one H chain (the GpH7-B3 chain); also called P271L in one H chain
# B3: GpH7-A5/GpH7-B3 variant H268_20W/GpL16-k0 (He Ab) (antibody, human IgG1, kappa)
# heavy 1: not shown
# heavy 2: not shown
# light: B1 light
# notes: Anti-glypican-3 heterodimerized IgG1 antibody; the mutation stands in only one H chain (the GpH7-B3 chain); also called H268W in one H chain
# B4: GpH7-A5/GpH7-B3 variant H268_05P/GpL16-k0 (He Ab) (antibody, human IgG1, kappa)
# heavy 1: not shown
# heavy 2: not shown
# light: B1 light
# notes: Anti-glypican-3 heterodimerized IgG1 antibody; the mutation stands in only one H chain (the GpH7-B3 chain); also called H268P in one H chain
# B5: GpH7-A5/GpH7-B3 variant S267_20W/GpL16-k0 (He Ab) (antibody, human IgG1, kappa)
# heavy 1: not shown
# heavy 2: not shown
# light: B1 light
# notes: Anti-glypican-3 heterodimerized IgG1 antibody; the mutation stands in only one H chain (the GpH7-B3 chain); also called S267W in one H chain
# B6: GpH7-A5/GpH7-B3 variant H268_02A/GpL16-k0 (He Ab) (antibody, human IgG1, kappa)
# heavy 1: not shown
# heavy 2: not shown
# light: B1 light
# notes: Anti-glypican-3 heterodimerized IgG1 antibody; the mutation stands in only one H chain (the GpH7-B3 chain); also called H268A in one H chain
# B7: GpH7-A5/GpH7-B3 variant S267_16H/GpL16-k0 (He Ab) (antibody, human IgG1, kappa)
# heavy 1: not shown
# heavy 2: not shown
# light: B1 light
# notes: Anti-glypican-3 heterodimerized IgG1 antibody; the mutation stands in only one H chain (the GpH7-B3 chain); also called S267H in one H chain
# B8: GpH7-A5/GpH7-B3 variant P271_01G/GpL16-k0 (He Ab) (antibody, human IgG1, kappa)
# heavy 1: not shown
# heavy 2: not shown
# light: B1 light
# notes: Anti-glypican-3 heterodimerized IgG1 antibody; the mutation stands in only one H chain (the GpH7-B3 chain); also called P271G in one H chain
# B9: GpH7-A5/GpH7-B3 variant S267_19Q/GpL16-k0 (He Ab) (antibody, human IgG1, kappa)
# heavy 1: not shown
# heavy 2: not shown
# light: B1 light
# notes: Anti-glypican-3 heterodimerized IgG1 antibody; the mutation stands in only one H chain (the GpH7-B3 chain); also called S267Q in one H chain
# B10: GpH7-A5/GpH7-B3 variant H268_01G/GpL16-k0 (He Ab) (antibody, human IgG1, kappa)
# heavy 1: not shown
# heavy 2: not shown
# light: B1 light
# notes: Anti-glypican-3 heterodimerized IgG1 antibody; the mutation stands in only one H chain (the GpH7-B3 chain); also called H268G in one H chain
# B11: GpH7-A5/GpH7-B3 variant S267_14T/GpL16-k0 (He Ab) (antibody, human IgG1, kappa)
# heavy 1: not shown
# heavy 2: not shown
# light: B1 light
# notes: Anti-glypican-3 heterodimerized IgG1 antibody; the mutation stands in only one H chain (the GpH7-B3 chain); also called S267T in one H chain
# B12: GpH7-A5/GpH7-B3 variant H268_13S/GpL16-k0 (He Ab) (antibody, human IgG1, kappa)
# heavy 1: not shown
# heavy 2: not shown
# light: B1 light
# notes: Anti-glypican-3 heterodimerized IgG1 antibody; the mutation stands in only one H chain (the GpH7-B3 chain); also called H268S in one H chain
# B13: GpH7-A5/GpH7-B3 variant H268_18N/GpL16-k0 (He Ab) (antibody, human IgG1, kappa)
# heavy 1: not shown
# heavy 2: not shown
# light: B1 light
# notes: Anti-glypican-3 heterodimerized IgG1 antibody; the mutation stands in only one H chain (the GpH7-B3 chain); also called H268N in one H chain
# B14: GpH7-A5/GpH7-B3 variant S267_15Y/GpL16-k0 (He Ab) (antibody, human IgG1, kappa)
# heavy 1: not shown
# heavy 2: not shown
# light: B1 light
# notes: Anti-glypican-3 heterodimerized IgG1 antibody; the mutation stands in only one H chain (the GpH7-B3 chain); also called S267Y in one H chain
# B15: GpH7-A5/GpH7-B3 variant S337_02A/GpL16-k0 (antibody, human IgG1, kappa)
# heavy 1: not shown
# heavy 2: not shown
# light: B1 light
# notes: heterodimerized antibody, mutation in one H chain only; also called He Ab
# B16: GpH7-A5/GpH7-B3 variant S324_04F/GpL16-k0 (antibody, human IgG1, kappa)
# heavy 1: not shown
# heavy 2: not shown
# light: B1 light
# notes: as for B15
# B17: GpH7-A5/GpH7-B3 variant P238_10E/GpL16-k0 (antibody, human IgG1, kappa)
# heavy 1: not shown
# heavy 2: not shown
# light: B1 light
# notes: as for B15
# Biological target: T3, FcγRIIIa extracellular domain with C-terminal His tag (human, UniProt P08637 17-208)
# T3 construct: extracellular domain; also called FcgRIIIa; 3a; not shown: His tag attached to the C terminus
# T3 sequence (P08637 17-208): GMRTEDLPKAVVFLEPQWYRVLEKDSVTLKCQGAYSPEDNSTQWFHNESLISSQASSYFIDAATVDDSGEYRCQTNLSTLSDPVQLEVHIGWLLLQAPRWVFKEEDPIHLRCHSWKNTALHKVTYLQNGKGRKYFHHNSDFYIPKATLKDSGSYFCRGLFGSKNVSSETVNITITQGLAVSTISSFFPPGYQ
# Test: SPR (Biacore), antibody captured on antigen peptide chip, FcγR as analyte; bound amount against control heterodimerized antibody
# Method: (§1) Analysis of interaction between objective antibody and the FcγR was carried out using Biacore T100 (GE Healthcare). HBS-EP+ (GE Healthcare) was used as the running buffer, and the measurement temperature was set to 25° C. Chips produced by immobilizing the antigen peptide by the amine coupling method to a Series S Sencor Chip CM5 (GE Healthcare), or alternatively, chips produced by allowing preliminarily biotinylated antigen peptides to interact with and immobilize onto a Series S Sensor Chip SA (certified) (GE Healthcare) were used. Antibodies of interest were captured onto an antigen peptide-immobilized chip, and allowed to interact to each FcγR diluted with running buffer. To regenerate and repeatedly use the chip, the antibodies captured on the chip were washed off by reacting 10 mM glycine-HCl, pH 1.5.
# (§2) The FcγR-binding activity of each antibody was assessed primarily using as an indicator the FcγR-binding activity and dissociation constant for FcγR.
row,He/Con_3a (IIIa binding),Binder
1,"91.9 relative binding activity, GpH7-A5/GpH7-B3/GpL16-k0 = 100",B1
2,"71 relative binding activity, GpH7-A5/GpH7-B3/GpL16-k0 = 100",B2
3,"82.8 relative binding activity, GpH7-A5/GpH7-B3/GpL16-k0 = 100",B3
4,"76.4 relative binding activity, GpH7-A5/GpH7-B3/GpL16-k0 = 100",B4
5,"21.5 relative binding activity, GpH7-A5/GpH7-B3/GpL16-k0 = 100",B5
6,"122 relative binding activity, GpH7-A5/GpH7-B3/GpL16-k0 = 100",B6
7,"17.9 relative binding activity, GpH7-A5/GpH7-B3/GpL16-k0 = 100",B7
8,"113 relative binding activity, GpH7-A5/GpH7-B3/GpL16-k0 = 100",B8
9,"65 relative binding activity, GpH7-A5/GpH7-B3/GpL16-k0 = 100",B9
10,"96.7 relative binding activity, GpH7-A5/GpH7-B3/GpL16-k0 = 100",B10
11,"45.6 relative binding activity, GpH7-A5/GpH7-B3/GpL16-k0 = 100",B11
12,"122 relative binding activity, GpH7-A5/GpH7-B3/GpL16-k0 = 100",B12
13,"104 relative binding activity, GpH7-A5/GpH7-B3/GpL16-k0 = 100",B13
14,"11.8 relative binding activity, GpH7-A5/GpH7-B3/GpL16-k0 = 100",B14

# Biological target: T1, FcγRIIb extracellular domain with …
# Test: as above
# Method: as §1, §2
row,He/Con_2b (IIb binding),Binder
1,"379 relative binding activity, GpH7-A5/GpH7-B3/GpL16-k0 = 100",B1
2,"103 relative binding activity, GpH7-A5/GpH7-B3/GpL16-k0 = 100",B2
3,"111 relative binding activity, GpH7-A5/GpH7-B3/GpL16-k0 = 100",B3
4,"116 relative binding activity, GpH7-A5/GpH7-B3/GpL16-k0 = 100",B4
5,"57.2 relative binding activity, GpH7-A5/GpH7-B3/GpL16-k0 = 100",B5
6,"167 relative binding activity, GpH7-A5/GpH7-B3/GpL16-k0 = 100",B6
7,"65.9 relative binding activity, GpH7-A5/GpH7-B3/GpL16-k0 = 100",B7
8,"193 relative binding activity, GpH7-A5/GpH7-B3/GpL16-k0 = 100",B8
9,"218 relative binding activity, GpH7-A5/GpH7-B3/GpL16-k0 = 100",B9
10,"144 relative binding activity, GpH7-A5/GpH7-B3/GpL16-k0 = 100",B10
11,"104 relative binding activity, GpH7-A5/GpH7-B3/GpL16-k0 = 100",B11
12,"160 relative binding activity, GpH7-A5/GpH7-B3/GpL16-k0 = 100",B12
13,"156 relative binding activity, GpH7-A5/GpH7-B3/GpL16-k0 = 100",B13
14,"37.9 relative binding activity, GpH7-A5/GpH7-B3/GpL16-k0 = 100",B14

# Biological target: T2, FcγRIIa R (human FcγRIIa, allotype R, …)
# Test: SPR (Biacore), relative binding vs GpH7-A5/GpH7-B3/GpL16-k0
row,He/Con_2aR,Binder
1,"105 relative, control = 100",B15
2,"104 relative, control = 100",B16
3,"151 relative, control = 100",B17

# Biological target: T3, FcγRIIIa extracellular domain with …
# Test: SPR (Biacore); relative FcγRIIIa binding divided by relative FcγRIIb binding of the same antibody
# Method: as §1, §2
row,He_3a/2b (IIIa/IIb),Binder
1,0.24 ratio of He/Con_3a to He/Con_2b,B1
2,0.69 ratio of He/Con_3a to He/Con_2b,B2
3,0.74 ratio of He/Con_3a to He/Con_2b,B3
4,0.66 ratio of He/Con_3a to He/Con_2b,B4
5,0.37 ratio of He/Con_3a to He/Con_2b,B5
6,0.73 ratio of He/Con_3a to He/Con_2b,B6
7,0.27 ratio of He/Con_3a to He/Con_2b,B7
8,0.59 ratio of He/Con_3a to He/Con_2b,B8
9,0.3 ratio of He/Con_3a to He/Con_2b,B9
10,0.67 ratio of He/Con_3a to He/Con_2b,B10
11,0.44 ratio of He/Con_3a to He/Con_2b,B11
12,0.76 ratio of He/Con_3a to He/Con_2b,B12
13,0.67 ratio of He/Con_3a to He/Con_2b,B13
14,0.31 ratio of He/Con_3a to He/Con_2b,B14
